Assay: soluble on expression in E. coli; label from the status in PepcDB or PDB records
With “SIEKIWAREILDSRGNPTVEVDLYTAKGLFRAAVPSGASTGIYEALELRDGDKQRYLGKGVLKAVDHINSTIAPALISSGLSVVEQEKLDNLMLELDGTENKSKFGANAILGVSLAVCKAGAAERELPLYRHIAQLAGNSDLILPVPAFNVINGGSHAGNKLAMQEFMILPVGAESFRDAMRLGAEVYHTLKGVIKDKYGKDATNVGDEGGFAPNILENSEALELVKEAIDKAGYTEKIVIGMDVAASEFYRDGKYDLDFKSPTDPSRYITGDQLGALYQDFVRDYPVVSIEDPFDQDDWAAWSKFTANVGIQIVGDDLTVTNPKRIERAVEEKACNCLLLKVNQIGSVTEAIQACKLAQENGWGVMVSHRSGETEDTFIADLVVGLCTGQIKTGAPCRSERLAKYNQLMRIEEELGDEARFAGHNFRNPSVLHHHHHH” the “soluble on expression in E. coli” value was “soluble”.
With “MKQESASQSTPPPSLSPAPSSAQPFWGDGDPQALWIFGYGSLVWKPDFAYSDSRVGFVRGYSRRFWQGDTFHRGSDKMPGRVVTLLEDHEGCTWGVAYQVRGEQVNEALKYLNVREAVLGGYDTKEVTFYPQDTPDQPLTALAYVATPQNPGYLGPAPEEVIATQILACRGFSGHNLEYLLRLADFMQLCGPQAQDEHLEAIVDAVGTLLPCSYLPEQPLALT” the “soluble on expression in E. coli” value was “soluble”.
For “MSLRKIHVTIIAPYEGLAETFKRIQNEFEHLDMTIHIADLQQSLPLLTTEVQAQTDIFISRGGTAKVIRTRTEKPVVEVPISGFDILRMILLIQAEREQTEIIAFENISLSFTKVTELIETDIPITAVMKEEEVEPAIIAAKAAGRKMIVGDAITTSLANKHGLEGILITSGEESVRTALEQADLLGRKMNDSKQEGHHHHHH”, the “soluble on expression in E. coli” value was “soluble”.
In the case of “MSLKKNVYFLLALLLIGLSACDNAPKFKVQGEINGAEDKMLYLEASGLDGIVALDSAKLGSSGSFSFAQKRPESPEFYRLRLDNKVINFAVDSTETVSVKAEINDFATAYRIEGSENNLKIKELVLLQADLQKNVDKLGQNRNIPAGIAQDSLLAMVNNYKNKVKREYIFAAPNMPYAYFALFQSLNGYMIFDPLTNKEDVKCFAAVATSLNNAYPHADRSRNLYNMVIKGMKNTRTPRQQTMEIPEDKIKEASIIDIQLKDLKGNTRSLTDLKGKVVLIDFTVYNNAMSAAHNLALRELYNKYASQGFEIYQISLDGDEHFWKTSADNLPWVCVRDANGAYSSYISLYNVTNLPSVFLVNRNNELSARGENIKDLDEAIKKLLEGHHHHHH”, the “soluble on expression in E. coli” value is reported as “not soluble”.
In the case of “MAQTQSPLQWLATTLIRGYQIFISPILGPRCRFNPTCSHYAIEAIKVHGTAKGCWFALKRILKCHPLHPGGSDPVPPKNDRCNKLEHHHHHH”, the “soluble on expression in E. coli” value is reported as “not soluble”.
With “MGSDKIHHHHHHMAKKKTKFMCQECGYESAKWMGKCPGCQSWNSMVEEFTEVKAKSSRSYVTSGAGIAKPQPITKVEREQEPRIDTSMKELNRVLGGGIVPGSLVLVGGDPGIGKSTLLLQLSARLADLKQRVLYISGEESVKQTKIRSDRLGVLSDHLYVLAETDMEKIEQAIGEVDPTLVIIDSIQTVYQDEITSAPGSVAQVRECTASFMRIAKTTGVAIFIVGHVTKQGAIAGPKLLEHMVDSVLYFEGERHHTYRILRAVKNRFGSTNEMGIFEMKESGLEEVANPSEIFLEDRSSGVAGSTVVASMEGTRPVLVELQALISPTSFGNPRRMATGVDHNRISLLMAVLEKRVGMLLQNQDAYVNVAGGVRLDEPAIDLGIAVSIASSFRNQHTNPHEVVIGEIGLTGEVRRVSRIDQRVNEAAKLGFKRVIIPDKNLGGWTIPSTIEVIGVSTVQDALEVTLGR” the “soluble on expression in E. coli” value was “not soluble”.
In the case of “MGLNVREGEIMAKNRSRRLRKKMHIDEFQELGFSVAWRFPEGTSEEQIDKIVDDFINEVIEPNKLAFDGSGYLAWEGLICMQEIGKCTEEHQAIVRKWLEECKLDEVRTSELFDVWWD”, the “soluble on expression in E. coli” value is reported as “not soluble”.
For “GPGSMSALWAQVRQTVESEWDKTIVPAISAYIEVPNQSPQFDPEWATNGLQEKAFGILIDWMNAQNVQGLTYDYITADGRTPFLLVEIAGTEPTNNTVLMYGHMDKQPPLRPWAEGLDPHKAVVRDGKLYGRGGADDGYALFAAVTAISSLQRHGIPHGRVVITIEAGEESGSPDLDYYMERCKERIGKVDLMVCLDSGSMNYSQVWLTTSLRGVAIGELTVQTLTESMHSGVAGGVVPDTFRITRELLSRIEDCKTGEVTIPEAHCEIPPNAVKAAEAMKTVPFKEQFAMAAGVATVPGDNVELAIQNFWKPSLTVTGANLPDPQIAGNVIRTHTTVKLSMRLPPLVKAEAALQAMKRILEADPPYGAKVAFKGVGAGNGCAAPELKPWLQEVLHEGSTEAFGNTYACQGMGGAIPFIGMLIDMYPEAQFVVTGLLGPQSNAHGPNEFLHIPYAKGLTYSIARVVAAHLHNTPK”, the “soluble on expression in E. coli” value was “soluble”.

Reference: the DeepSol protein solubility set
